assay: soluble fraction after stress (log2 fold change); higher = more stays soluble; pooled small domains, quantitative proteomics; conditions: stress: 75 degC
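Note: 20 min heating vs room temperature control held 20 min.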

Sequence	soluble fraction (log2)
HMSVFGDNVARLRAEHGMSQRALAERLEITNGTVAAWESRDTLPDYDRIRQIAEIFDVPIPQLFAKYIP	-1.54
HMSVISVETAKSKALAHAGLTASKVTFIENKLEWDDGRQVYDIEFYTSDYKEYDYTIDAVSGQVLEFDY	-1.67
HMSVKLMEVKGASTVVSRQVREAVSIVFPTSSMRLDLVALKARIEGVDAVKRADVYLRNGILEIQIDER	-2.11
HMSVKLYPNPTRSVTTFATDVDKWYLYDNQGKLVSEGNTKTIDVTAFPVGIYFVKTIKGNNSTFVKLIV	-2.14
HMSVLNLQTDIPKKYTDVLGTSVKGRLNTLVHNVIINSVDRPVIQMSEEVHEAMQGLRIFMFENVYRNPV	0.187
HMSVLSEQIKEQLMEDIFHKKYKAGDRIVESALARELGVSQASVREALRSLIAMGFLENEPFKGITVR	-0.000514
HMSVNAPMPGKIVNVLVSEGQKVNSGDVLLILEAMKMQNEIAATQAGTVKAINVAAGQSVKVGDALVN	-0.0534
HMSVPQENKDLLGRSIEIFYAGKTVEAKVTDTGALAPLGRALDLSPATWRAFGASSISDWGVRGVFYRFVA	0.212
HMSVSTGTITGSVVNLREEPNTSSKVLDKLPKDTVVYVLSASGEWYNVSYGDKTGWVYGEYLA	-0.737
HMSVTSEIGAKIKYFRKSKHFSLQEMADLLYKSKSTLSKYENGQISIDIETLYAIAKVLGVHVEQLLYSEP	-5.12
HMSVTSIEGRVVYDENANKIGIAKQVGIDSTQSMVLVLTKNDGTEGSISWNNIKKIGEIILLGN	-0.908
HMSWAGRRSLAALEARYRDETGISNLKIKHNGVLGYHIEVPSKSADKLMAPDSGFTHRQTLAGAVR	0.228
HMSYDAINGYEPSDLRGSLTLEQTASMLNLPLTDVYARLGLPANYPSGATLKDGAADMGMGLSDFKHQLF	-0.121
HMSYLDTLPGRRVAAQGAITGDAGTLAVDGDTWSARVEPGAPDVAPGDEVTVLRIDGATLVVRPLP	0.0276
HMSYPFSEDALKEKIREYLKHNRSINRKVLEAEFHIRKQTALNWLKKLEKSGFLIKEGSRNAPVYFLAE	-1.83
HMSYQADEIKEKLIDILQNQKTGLSGLEISERIGINRITMTKYLQVFAAEGFIKQKNIGNVIIWFIEDGTE	-1.05
HMSYTYPVARLNHIKGKWYVLVSVPAHLRHLFPNQRDLRRSTGTDDESLAKRKQHALAQEIYDLFD	-0.653
HMTAFEPYLVKVMASVLNIRKGPGTSYAITGQIKDKGTYTIVAESGSWGKLKSGAGWISLSYTSKAGKA	-1.82
HMTAFSEQLIKLRKQKGLSQEQLGAAVGVTRQTVSKWELGDTTPELGKLVQLSDYFQLSIDELVGH	-0.703
HMTAGTTALNKLQQGMSTQQVQAALGTPSDRTVKESGVELWKYYYPYENMLLYLKFRDGHLVSFGTN	-0.594
HMTAKQDLDSIYRHLVATRKSIAENPKMVSSIDDPQALIKMLDYAIQYFYTDKRDEALAVLEKNEEQLNFR	-0.347
HMTALTTEDLERRFYAKTYEGESAQKRLARLEISVFGELRQGRPESDRLHDLNNAVLEKERAALNAGAVG	0.063
HMTAMQYVTIKDIADALGISKSSVSRALAGDVHNVSAQTIERVRAKALEMGYLRNNAAVNLR	-0.413
HMTANDKRNALYRKIEVGRRQLPAMDEVAFRQLLAAEFGVESRKDMSVGQLSRLVNILAEKGAVF	-0.741
HMTANTLDLTYSQFLENVKNGSVNDVTIRGNNVSGNFSDGRKFKTYAVNDPTLVEKLTKMGVNISAAPL	0.405
HMTAPELSVGDYLEYRGKEYKVESLDMDGFITLTDTALEDAPRLISRVTFLTDEFIRSGEYMVIT	-0.811

Sequence	soluble fraction (log2)
HMTAQGDSSDAVQRAITEILRHEDPSHPFSDQQLVIKLRTMDISVSRRTVTKYRKLLHIPSSTHRK	-3.12
HMTARYQQVEDYIVRRIQDGSWPPGHRLPSEHELVQQFGMSRMTVNRALRDLMQKGRIVRVAGVGSFVAQD	-1.98
HMTATSKKAAWDEVNKIFPTDYERSAAESERAGYAIFRSTAEGVNAWISDLGDRLEINLPDGKTVNIWIEE	-0.0996
HMTATVPDSEAGIRLDVYAAALLGVSRAGAQKYIESGAVRVNGLPAPKNRRLESGDVIEAVLPDPE	0.194
HMTAVAAEQQAQDAYRQTAANNLNEIQAKYKLPDSESDDFFTFAYERGFTQEDFIDIGLVDKIMGDYV	0.19
HMTAVNEHELMNQFKLSLGYANGDDPQTKLSTDEKNDFMRFKEWATAMTKDSKMGKDPDYLKKLAVQWTLK	0.278
HMTAYEGLPVTLIIDGRVFQQNLQKMNLSVEWLRLELKKFGVTNLKEVLFASLDTEGKLFYQLKT	-0.792
HMTDEYYSYIGKTGTTITVLRPAGIAEVEGERLNVVSEGEFIRKGAAILVKEVEGARILVEEVN	-0.58
HMTDFESYTVRVTATNLNIRKGAGTNFHSAGYIKPGVYTIVEEADGKGATRWGKLKSGMGWISLDYAKK	-1.04
HMTDGYAMRLERLNSLEEYVLNKGTVSLEDLAERFGVSINTIRRDLNELISRGQIKKVYGGVSSLHD	-0.252
HMTDIDATSIERAVAKRRHFFLSNIQDLTMKMARRLIEKDLGLAPKHLDAAPFKTRITELVDAVIALGD	-0.393
HMTDIKYLIADGNDIKHWDTASSSYVKVSELPLTSDKFKIYGDDIYHKERTGIIAASPILKIWSPSAE	0.384
HMTDKLIAYSVDGILNVITSEAQSVKVYAIDGRLVRILQLGEGRNEVSGLAKGIYIVDNRKVAV	-2.71
HMTDLNQIGERIKGLRDALGYSPEKMASILEQKVDDYLAYEEGTKDISLSVLQRIEKEFDIDLSTLLFGT	-0.333
HMTDRKRDAIVQAAIGEFREHGFNGTSMDRVAAAADVSKRTVYNHFPSKEELFEAILLLMWE	-1.93
HMTDSISLTLNGDPRPFRAGATVADLVRDIGLDPAKVAVERNLEIVPRSTLENVHLADGDVLEIVHFV	0.0689
HMTDTIALRSVIAESGLKYKALAEIMGLSPYTLQMKIDNESEFKASEIDALANALGMDMQQRDSIFF	-0.536
HMTDVIADMLTRIRNAASSKHQTVDIPSSNLKKEIAKILLEEGYIRDFIEIDDKKQGIIRITL	-0.692
HMTDYREILRLLSLGLSRTQIADSLNVSRTTVIHTLQRAVAQELDWQTAEGMSDRELVAKLFPV	-3.95
HMTEAVYMPALQNKTLEEAQRIVEQYDLELEYTYEANAQVEEGRILSQTPQMGVLVERGEKVQAVVSLG	1.01
HMTEDELLAQFEEILDGYVGKPGGLIPALQTAQKLFGYLPKRVLQLISMKLDIPYSEVTGVVSFYSFFTTV	0.28
HMTEEEEFEKGFEILVNLSHFNRFSVYKEDEYVIVRIADYDFNEYFKVKKSDVGRIAEFLNENIT	-2.61
HMTEELLNQRKETMLALLNDPTYVPMKLKELAMLLNLSRDQRDELREVMESLEQDGKVILTKRGKYKIP	-0.261
HMTEELQDMESRIIEAAKRVFVRKGYEATKMSDIALEVGLGRTALHYYFRTKEMLFDAIFGRLMGV	-0.702
HMTEEPISDGIKKLVEEWENIEGNLIMIFHGIQKHYGYVPRNVAKYVSEAIDVPLTRIYEILTFYNYFTM	0.261
HMTEEYAVLWRVARQTLKPEAFDVLWMKYREQLSIAEIAGIMNRSETSVKVMLHRARKNLGTALESS	-1.75

Sequence	soluble fraction (log2)
HMTEKIEWYKEVLELEPNSKVFFPLARMLAEEQRFDEAVAVLEHGLERHGEFLEARLFFIELLHET	-3.16
HMTEKQYIYSIGDRVNIGTDEFEIVNINEKEVSIADVTFPMLVKQISYEEFDRKVKENPFNDHLII	-0.112
HMTEKSTRSVPQEHEGKRLDVAAALLFPVYSRSELARRIDAGYLLLNGKGSTPKTKVHELDLIELLEV	-0.601
HMTELKKTAVDTWVKDLGTEQALAKLDTLAVVKLRRLAREYKAFGIAGRAISKADKGMLLAEFRAYYEN	-2.08
HMTETSKLTDAKQLLESILSSGEVSYKDIISAAEEYEIGKRTLMSAKALLSIESIKKTDGWYWTLPH	-0.368
HMTEVPSLSSLKIGDLIFYRNNKGAIAHSAIITSFYNGRPFISQHTFNALNITYVKDWASKMHFIKIW	0.0528
HMTEWDDATVKDAVEYFMSVNGRVPTVTDFKKENGLPSHPVIKQRYKINLHEWLNKNFPTYY	-1.3
HMTFEPVYDENSRILILGTFPSVKSREQQFYYGHPQNRFWKLLAALTGWKVPKTISEKKELLLQNGIA	-0.208
HMTFFDDLLYQAKAAVDNDPSIKPSLHNRAIIEILYQQGVFNMKNAVEHVAELLEISKNTVYLHLRSVKG	-1.06
HMTFGEMLQYTNRLKEILESNAPQSIKDRRLANLMTDLEQAYGIPILRDQEFEKENPFLMQLYRTIS	-2.4
HMTFKDIMENYTISRIENTINSAVVFLDEINAYITIDKTQLPSNLRYDTDSKIMASQIPDDAKIKYFMIYW	-2.12
HMTFPIDINRADTEQLTALPGIGEVLAKRIIAYREENGSFLSTDELKNVEGIGEKRLEAIVDLITIG	0.145
HMTFSDKIRELRKQKGVSQAVVAEYLGITKQAYSLYETGKREPDFDSLLKLAEYFGTDTDSLLY	-1.52
HMTGEEVLIMLGEKMKLIRNYNGYSQRQIAEILKIERSTYASYETGRNRPDIFAVQRFAKIFNVSVDYIL	-0.244
HMTGELEVTAAGLSPEKLLNLAAKNHITLSNVKRLSYTQLSFRIGPADYNRLKKLLPEGRYKLNVGSS	-2.28
HMTGESIPFSKFLSEVDSGRVINVEIQGNNISGLLSDGNKFKTYSPNYPNLVEILSEKEVSIVATPLE	0.0122
HMTGGLTQEQISQLRMLTPQQIEQLRQLQPQQVEMLRQLRPEQVMLLTQLEPQQIMAFMRLEPSVIMQL	-0.261
HMTGGMVTYIIEKGEGFFSLERKFGLSENELIKLNPSLKSGLKSEMQINIPKENYDRYVASS	-0.45
HMTGIESVKPSSDFTVEGNRIVAGDAEVEVYDLAGRKVNNNNLTTGVYIAKIAGSAESVKVFV	0.144
HMTGIQDVPALETRRVGNTFFFDRATDVQVYDLQGRLLQQARKVTSVSIGHLQQGVYVLTDGRASVKVQ	-1.51
HMTGIQLNDRERAILQHLSDGLTTKAIAERIFLREDTVKWYRKNLLARFEQPIVAALVKWAVLEGLV	0.0483
HMTGIVVVDVVGQVGRPGLVSLPAGSRVADAITAAGGATPEADVSLLNQARLVIDGEQIRVPRPGEVIAA	-0.0555
HMTGKVSHGERKSVLVSLAGSMRARGMSIDAVRAGLYADNEKRFDPPLDERDIEDVLNSAKKWGDP	-0.352
HMTGMDALIGRRVFVSEEILPGDAGGRVAVDGDSWRAISVGTAKPIPAGTEVRIHGYKSLILEVEPI	-0.788
HMTGQHFDLEDTDGNLVYEIDSTVPLKTFYIYDAMHTEIFRMTKELLHALPTYRFYLYGEPYGVLKKQ	-0.192
